Tests used:
[1] = target: T1, endogenous human Tie1 of primary human endothelial cells (HDMEC/HDMVEC, HUVEC) and human tissues (human, UniProt P35590 25-1138); assay: Western blot, HDMEC
T1 construct: also called endogenous Tie1; Tie-1 in HUVEC
Description: (§1) COS1 cells were transfected with pcDNA3-Tie1-V5 (1 μg DNA per 10 cm cell culture plate) using FUGENE 6 (Roche) according to manufacturer's instruction and incubated for 48 h before stimulation. For immunoprecipitation, Tie1 transfected cells and HMVEC cells were lysed in DOC-RIPA lysis buffer (50 mM Tris-HCl pH 8.0, 150 mM NaCl, 1% Triton-X-100, 0.1% SDS, 1% DOC, 10 mM EDTA) supplemented with aprotinin, leupeptin, PMSF and sodium vanadate. Immunoprecipitation was carried out from equal amount of cell lysates by incubating with polyclonal anti-human Tie1 antibodies (R&D), monoclonal anti-V5 antibodies (Invitrogen) or altogether 23 anti-Tie1 antibodies (1μg/ml) for 1 to 2 h followed by incubation with protein G-Sepharose (Amersham Pharmacia Biotech AB) for 1 h. The immunoprecipitates were washed twice with PBS-T and twice with PBS, followed by elution with the Laemmli buffer and separation in 8% SDS-PAGE. The blots were probed with the 23 anti-Tie1 antibodies (5 μg/ml) and subsequently anti-human Fc antibodies conjugated with HRP.
(§2) Next, to find out if the anti-Tie1 antibodies recognize Tie1 in living cells, those cells were studied by immunofluorescence staining.

[2] = target: T2, human Tie1, full length, V5-tagged (pcDNA3-Tie1-V5), in transiently transfected COS1 cells (human, UniProt P35590 25-1138); assay: Western blot, Tie1-V5-transfected COS1
T2 construct: it is not expressly tied to the pcDNA3-Tie1-V5 construct; also called Tie1-transfected; transfected Tie1
Description: as §1, §2

[3] = target: T3, recombinant human Tie1-Fc (Tie1 extracellular domain fused to human Fc) (human, UniProt P35590 25-759); assay: BIAcore, Fab over biotinylated human Tie1-Fc on streptavidin chip, 1:1 fit
T3 construct: also called Tie-1 Fc Human; not shown: human Fc
T3 sequence: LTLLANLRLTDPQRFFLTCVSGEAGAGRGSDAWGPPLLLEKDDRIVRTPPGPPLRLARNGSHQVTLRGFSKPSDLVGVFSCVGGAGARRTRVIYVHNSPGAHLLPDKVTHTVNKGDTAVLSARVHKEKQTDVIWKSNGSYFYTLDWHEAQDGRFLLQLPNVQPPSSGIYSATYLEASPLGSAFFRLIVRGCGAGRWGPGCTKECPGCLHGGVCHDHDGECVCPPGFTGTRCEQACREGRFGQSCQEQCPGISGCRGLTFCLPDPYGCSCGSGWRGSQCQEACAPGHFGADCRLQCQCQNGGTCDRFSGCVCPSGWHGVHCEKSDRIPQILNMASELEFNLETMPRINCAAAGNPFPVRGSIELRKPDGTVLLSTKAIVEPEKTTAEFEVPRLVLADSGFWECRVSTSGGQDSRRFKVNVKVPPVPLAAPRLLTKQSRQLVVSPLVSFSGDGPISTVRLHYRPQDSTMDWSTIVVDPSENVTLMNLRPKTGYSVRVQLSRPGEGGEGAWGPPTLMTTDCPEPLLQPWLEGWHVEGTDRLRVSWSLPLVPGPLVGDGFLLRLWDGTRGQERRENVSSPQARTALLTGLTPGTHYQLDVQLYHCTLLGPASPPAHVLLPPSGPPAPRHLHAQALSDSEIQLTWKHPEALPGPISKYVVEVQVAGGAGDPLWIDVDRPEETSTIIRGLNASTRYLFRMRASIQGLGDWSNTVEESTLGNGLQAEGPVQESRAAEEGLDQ
Description: Recombinant purified human Tie1-Fc antigen (Stock 2.45 mg/ml) was biotinylated using the EZ-link Sulfo-NHS-SS-Biotin (Pierce, Cat. 21331). The reaction was performed for 2 hours on ice in 50 mM sodium carbonate buffer, pH 9.6, in the presence of a 5-fold molar excess of biotinylating agent and was stopped by the addition of Tris-HCl, pH 7.5 (50 mM final concentration) followed by a 1-hour incubation on ice. Samples were then dialyzed against PBS. The antigen was then diluted 1/100 fold in HBS and was then captured onto a streptavidin chip. This was coated to a density of 830RU (resonance units). All analysis was performed in HBS buffer. […] Serial dilutions were made of each Fab preparation to obtain 10 nM, 5 nM, 2.5 nM, and 1.25 nM solutions. For the association phase samples were injected at 30 μl/min for 4 minutes using kinject program. This was followed by a 10 minutes dissociation phase, any remaining sample was stripped from the Tie-1 Fc surface at a flow of 50 μl/min with a single injection of 5 mM NaOH+1M NaCl for 18 seconds. All samples were run and analyzed in duplicate.
(§3) Sensorgrams were analyzed using the simultaneous ka/kd fitting program with 1:1 model in the BIAEVALUATION™ software 3.1.

[4] = target: T4, recombinant mouse Tie1-Fc (mouse, UniProt Q06806 23-755, limits assumed); assay: BIAcore, Fab over biotinylated mouse Tie1-Fc on streptavidin chip, 1:1 fit
T4 construct: also called Tie-1 Fc Mouse; not shown: Fc
T4 sequence (looked up): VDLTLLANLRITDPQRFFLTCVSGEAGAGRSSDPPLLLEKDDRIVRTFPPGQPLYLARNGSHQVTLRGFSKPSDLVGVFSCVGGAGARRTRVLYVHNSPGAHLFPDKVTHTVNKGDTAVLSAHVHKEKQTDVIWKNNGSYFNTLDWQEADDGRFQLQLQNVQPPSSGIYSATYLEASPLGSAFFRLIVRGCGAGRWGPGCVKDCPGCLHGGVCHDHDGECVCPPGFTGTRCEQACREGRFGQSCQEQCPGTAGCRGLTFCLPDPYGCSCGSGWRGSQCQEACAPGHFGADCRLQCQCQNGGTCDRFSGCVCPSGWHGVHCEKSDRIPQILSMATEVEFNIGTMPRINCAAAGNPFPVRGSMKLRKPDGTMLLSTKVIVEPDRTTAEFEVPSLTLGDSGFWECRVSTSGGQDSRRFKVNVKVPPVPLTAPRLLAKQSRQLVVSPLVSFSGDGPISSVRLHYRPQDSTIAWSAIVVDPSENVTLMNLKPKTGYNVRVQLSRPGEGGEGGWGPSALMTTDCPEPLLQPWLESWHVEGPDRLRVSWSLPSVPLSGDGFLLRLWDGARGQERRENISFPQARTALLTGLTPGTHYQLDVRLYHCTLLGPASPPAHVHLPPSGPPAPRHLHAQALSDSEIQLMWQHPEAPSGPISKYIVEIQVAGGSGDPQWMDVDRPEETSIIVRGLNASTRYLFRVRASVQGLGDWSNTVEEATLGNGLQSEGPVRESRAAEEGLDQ
Description: Mouse Tie 1-Fc antigen (0.5 mg/ml stock) was biotinylated using established procedures and after dilution 1/100 fold in HBS this was then used for capturing to a streptavidin chip. This was coated to a resonance value of 740RU. All analysis was performed in HBS buffer. […] Serial dilutions were made of each Fab preparation to obtain 10 nM, 5 nM, 2.5 nM, and 1.25 nM. For the association phase samples were injected at 30 μl/min for 4 minutes using kinject program. This was followed by a 10 minutes dissociation phase, any remaining sample was stripped from the Tie-1 Fc surface at a flow of 50 μl/min with a single injection of 50 mM NaOH+1 M NaCl for 18 seconds. All samples were run and analyzed in duplicate.
as §3

[5] = target: T3, recombinant human Tie1-Fc (Tie1 …); assay: BIAcore, Fab over human Tie-1/Fc coupled to CM5 chip, 1:1 fit
Description: Recombinant human Tie-1/Fc was coated on a CM5 chip. The surface of the chip was first activated with a 7-minute pulse of 0.05 M NHS/0.2 M EDC, then Tie-1/Fc (2 μg/ml in 10 mM sodium acetate, pH 4.0) was run over the chip surface until 750 RUs were coated on the surface. All flow cells were subsequently deactivated with a 7-minute pulse of 1 M ethanolamine hydrochloride, pH 8.5. All further experiments were performed in HBS buffer.
A series of dilution (50, 25, 12.5, 6.25 and 3.125 nM) was prepared in HBS buffer. Samples were injected at 30 μl/min for 5.3 minutes using the KINJECT™ program. This was followed by a 10-minute dissociation phase, and the remaining Fab was stripped from the surface with a single 18-sec injection of 50 mM NaOH/1 M NaCl.
Sensorgrams were analyzed using the simultaneous ka/kd fitting program from the BIAEVALUATION™ software 3.1 assuming a 1:1 model.

B1: P-D12 IgG (anti-Tie1 isolate p-D12, human IgG1) (antibody, V domains shown)
VH: EVQLLESGGGLVQPGGSLRLSCAASGFTFSGYGMHWVRQAPGKGLEWVSVISPSGGQTSYADSVKGRFTISRDNSKNTLYLQMNSLRAEDTAVYYCARDRQYYYGSGSLDYWGQGTLVTVSS
VL: DIQMTQSPSSLSASVGDRVTVTCRASQSISSYLNWYQQKPGKAPKLLIYAASSLQSGVPSRFSGGGSGTDFTLTISSLQPEDFATYFCLQDYKYPWTFGQG
notes: the VL entry stops within FR4
[1]
  binding result: binds
[2]
  binding result: binds

B2: P-F4 IgG (anti-Tie1 isolate p-F4, human IgG1) (antibody, V domains shown)
VH: EVQLLESGGGLVQPGGSLRLSCAASGFTFSAYMMSWVRQAPGKGLEWVSSIYPSGGYTYYADSVKGRFTISRDNSKNTLYLQMNSLRAEDTAVYYCARGLRGGPDYWGQGTLVTVSS
VL: DIQMTQSPSTLSAYVGDSVTITCRASQSVRRSLAWYQQRPGKAPKSLIYKASTLETGVPPRFSGSGSGTEFTLTISSLQPEDSAIYYCQQYGSFPLTFGGG
notes: the VL entry stops within FR4
[1]
  binding result: binds
[2]
  binding result: binds

B3: P-G3 IgG (anti-Tie1 isolate p-G3, human IgG1) (antibody, V domains shown)
VH: EVQLLESGGGLVQPGGSLRLSCAASGFTFSHYMMVWVRQAPGKGLEWVSSIYPSGGWTYYADSVKGRFTISRDNSKNTLYLQMNSLRAEDTAVYYCARLDYGGNSAYFDYWGQGTLVTVSS
VL: QSVLTQPHSVSASPGKTVTISCTRSSGNIASNFVQWYQQRPGSVPTTVIYEDDRRPSGVPDRFSGSIDSSSNSAFLSISGLKTEDEADYYCQSHDRTTRAWVFGGGTKL
notes: lambda VL entry stops within FR4
[1]
  binding result: binds
[2]
  binding result: binds

B4: germlined E3 Fab (light chain framework regions germlined to DPK4; heavy chain as parental) (Fab, V domains shown)
VH: EVQLLESGGGLVQPGGSLRLSCAASGFTFSMYGMVWVRQAPGKGLEWVSVISPSGGNTGYADSVKGRFTISRDNSKNTLYLQVNSLRAEDTAVYYCARAPRGYSYGYYYWGQGTLVTVSS
VL: DIQMTQSPSSLSASVGDRVTITCRASQGIGHYLAWYQQKPGKVPKLLIYTASTLQSGVPSRFSGSGSGTDFTLTISSLQPEDVATYYCQQFNSYPHTFGQGTRLEIK
notes: also called germlined Fab E3; E3 germlined
[3]
  Kd: 3.4 nM
  koff: 0.00102 s⁻¹
  kon: 300000 M⁻¹ s⁻¹
[4]
  Kd: 3.1 nM
  koff: 0.00104 s⁻¹
  kon: 340000 M⁻¹ s⁻¹

B5: E3 Fab (parental, soluble Fab) (Fab, V domains shown)
VH: EVQLLESGGGLVQPGGSLRLSCAASGFTFSMYGMVWVRQAPGKGLEWVSVISPSGGNTGYADSVKGRFTISRDNSKNTLYLQVNSLRAEDTAVYYCARAPRGYSYGYYYWGQGTLVTVSS
VL: DIQMTQSPLSLSASVGDRVTITCRASQGIGHYLAWYQQKPGKVPKLLIYTASTLQSGVPSRFSGSGSGTDFTLTINSLQPEDVATYYCQQFNSYPHTFGQGTRLDIK
notes: also called parental E3 Fab; parental Fab E3
[3]
  Kd: 2 nM
  koff: 0.00061 s⁻¹
  kon: 300000 M⁻¹ s⁻¹
[4]
  Kd: 3.9 nM
  koff: 0.00095 s⁻¹
  kon: 246000 M⁻¹ s⁻¹
[5]
  Kd: 12 nM
  koff: 0.00105 s⁻¹
  kon: 88100 M⁻¹ s⁻¹

B6: E3b Fab (germlined heavy chain and germlined light chain of E3) (Fab, V domains shown)
VH: EVQLLESGGGLVQPGGSLRLSCAASGFTFSMYGMVWVRQAPGKGLEWVSVISPSGGNTGYADSVKGRFTISRDNSKNTLYLQMNSLRAEDTAVYYCARAPRGYSYGYYYWGQGTLVTVSS
VL: DIQMTQSPSSLSASVGDRVTITCRASQGIGHYLAWYQQKPGKVPKLLIYTASTLQSGVPSRFSGSGSGTDFTLTISSLQPEDVATYYCQQFNSYPHTFGQGTRLEIK
notes: also called Fab E3b; germlined (E3b)
[5]
  Kd: 7 nM
  koff: 0.00101 s⁻¹
  kon: 136000 M⁻¹ s⁻¹

B7: P-F3 IgG (anti-Tie1 isolate p-F3, human IgG1) (antibody, V domains shown)
VH: EVQLLESGGGLVQPGGSLRLSCAASGFTFSMYGMGWVRQAPGKGLEWVSVISPSGGQTAYADSVKGRFTISRDNSKNTLYLQMNSLRAEDTAVYYCARVALLLGHAFDIWGQGTMVTVSS
VL: DIQMTQSPSTLSASLGDRVTITCRASESISRWLAWYQQKPGKAPKLLMYEASTLESGVPSRFTGTGSGTEFTLTISSLQPDDFATYYCQQRSNWPLTFGGG
notes: the VL entry stops within FR4
[1]
  binding result: binds
[2]
  binding result: binds

B8: P-C6 IgG (anti-Tie1 isolate p-C6, human IgG1) (antibody, V domains shown)
VH: EVQLLESGGGLVQPGGSLRLSCAASGFTFSHYGMTWVRQAPGKGLEWVSVISPSGGQTGYADSVKGRFTISRDNSKNTLYLQMNSLRAEDTAVYYCAGGGYAAFDYWGQGTLVTVSS
VL: DIQMTQSPATLSLSPGERATLSCRASQSVSSYLAWYQQKPGQAPRLLIYDASNRATGIPARFSGSGSGTDFTLTISSLEPEDFAVYYCQQRSNWPLTFGGG
notes: the VL entry stops within FR4
[1]
  binding result: binds
[2]
  binding result: binds
